The nanobody polyreactivity screen of Harvey et al. (2022)

Assay: yeast display, Sf9 membrane polyspecificity reagent, FACS + sequencing; frameworks hold sequencing errors
How it was run: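 A synthetic nanobody library was expressed on Saccharomyces cerevisiae BJ5465 by galactose induction for 36–48 hours. The library was stained for 1 hour at 4 °C with 10% biotinylated, detergent-solubilized Sf9 membrane reagent and enriched with streptavidin microbeads before FACS. Low and high (top ~1%) gates were set on anti-HA fluorescence for expression and streptavidin fluorescence for reagent binding, and each polyreactivity label reflects the gate of origin.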

Row | Sequence | polyreactivity (PSR sort gate)
1 | QVQLVESGGGLVQAGGSLRLSCAASGRTFAYYAMGWYRQAPGKERELVAAISSGGGSTYYADSVKGRFTISRDNAKNTVYLQMNRLKPEDTSVYYCNKGFEFWGQGTQVTVSS | high polyreactivity
2 | QDQLVESGGGLVQAGGSLRLSSAASGFTFAHYARGWYRQAPGKERELVAAISGSGSSTYYADSVKGRFTISRDNAKNTVYLQMNSLKPEDTAVYYCNVRWYFLYDYWGQGTQVTVSS | low polyreactivity
3 | QVQLVESGGGLVQAGGSLRLSCAASGLTFVDYAMGWYRQAPGKERELVADYYFQRWFYGLRRLCEGALHNFTRQCQEYRNLQMNSLKPEDTAVYYCNTDGPTVAYSEYYYWGQGTQVTVSS | low polyreactivity
4 | QVQIVESGGGLLQAGGSLPLTCAASGSTFDDNAQGWYRLAPGKERELVAAISYSGGSTYYADSVKGRFTISRDNAKNTVYLQMNSLKPEDPAVYYCAADDLYTDYETWWRRGDYWGQGTQVTVSS | low polyreactivity
5 | QVQLVESGGGLVQAGGSLRLSCAASGLILSAYAMGWYRQAPGKERELVAAISKRGGSTYYADSVKGRFTISRDNAKNTVYSQMNSLKPEDTAVYYCAADYTKHYWGQGTQVTVSS | high polyreactivity
6 | QGQLVESGPVLVQAGCSLRLSSAASGYTFGWYAMGWYRQAPGKLRELVAGISSAGSTNYADSVNGRFTISRDNANINVYLQMNSLKPEDTAVYYCAAEVRYWFLADDYWGQGTQVTVSS | high polyreactivity
7 | QVHLVESGGGLVQAGGSLRLSCAATGLIFPRYAMGWSRQAPGKEREMVAAITRGGSTYYADSVKGRFTISRDNAKNTVYLQMYSLKPEDTAVYYCNADYSPSTWYLYYSLYYYWGQGTQVTVSS | low polyreactivity
8 | QVQLVESGGGLVQAGGSLRLSCAASGSIYHPYALGWYRQAPGKERELVAAISKSGGNTYYADSVKGRFTISRDNAKNTVYLQMNCLKPEDTAVYYCAALDYWGQGTQVTVSS | low polyreactivity
9 | QVQLVESGGGLVQAGASLRLSCAASGRTFRYYAMGWYRQAPGKERELVAAINTGSSTYYADSVKGRFTISRDNAKYTVYLQMNSLKPEDTAVYYCNVFQGTRYGYWGQGTKVTVSS | low polyreactivity
10 | QVQIVDSGGGLVHAGGSLRLSCADSGSIFSGNAKAWYIQATGKERELVAAISRSGGSTYYADSVKGRFTISRDNAKNTVYLQMNSLKPEDTAVYYCNAGRYRAGGWGVGEGYWGQGTQVTVSS | high polyreactivity
11 | QVQLEESGGGLVQAGGSLRLSCAASGRIFPTYVMGWYRQAPGKERELVAAITSIDGRTYYADSVKGRFTISRDNAKNTVYLQMNSLKPEDTAVYYCAADYDYLSISEGYYWGQGTQVTVSS | low polyreactivity
12 | QVQLVESVGGLVQAGGSLRLSSAASGYIFFGNAMGWYRQAPGKERELVAAIRWRGTSTYYADSVKGRFTISRDNAKNTVYLQMNSLKPEDTAVYYCAKDGRVHSPYDYWGQGTQVTVSS | low polyreactivity
13 | QVQLVESGGGLVQAGGSLRLSCAASGTTFGRNTMGWYRQAPGKERELVAAISKSGGSTRYADSVKGRFTISRDNAKNTVYLQMNRLKAEDTAFYYCAARVYSLGYGGDYWGQGTQVTVSS | high polyreactivity
14 | QVQHVESGGGLVQAGGSLRLSCAASGRIFTTYAMGWYIQAPGKERELVAAISRSGGSTYYADSVKGRFTISRDNAKNTVYLQMNSLKPEDTAVYYCAAVPTSNSFRSSFYYWGQGTQVTVSS | high polyreactivity
15 | QVQLVESGGGLVQAGGSLRLTCAASGRTFRSYTMGWYRQAPGKERELVAAISGSGGRTYYADYVKGRFTISRDNAKNNVYLQMNILKPEDTADYYCNKGFTDYHYYYWGQGTQVTVSS | high polyreactivity
16 | QVQLVDSGGGLVQAGGSLRLSCAASGSTFLYYSMGWYTQAPGKERELVAVISWSGVSTYYADSVKGRFTISRDNAKNSVYLQMNSLKPEDTAVYYCNTGNHYIRTYGYWGQGTQVTVSW | low polyreactivity

Row | Sequence | polyreactivity (PSR sort gate)
17 | QVQLVESGGGLVQAGGSLRLSCAASGRTFTHNVMGWYRQAPGKERELVAGISSTGGSTYYADSVKGRFTISRDNAKNTVYLQMNSLKPEDTAVYYCAVIGYHYSAISPPSQTRQGYDYWGQGTQVTVSS | low polyreactivity
18 | QVQLVESGGGLVQAGGSLRLSCAASGLTLKRNAMGWYRQAPGKERELVAAISGRGGSTYYADSVKGRFTISRDNAKNTVYLQMNSLKPEVTAVYYCAATVQYSPIYDYWGQGTQVTVSS | high polyreactivity
19 | QVQLVESGGGLVQAGGSLRLSCAASGITLYWYAMGWYRPAPGKERELVAAISRRGGTTYYADSVKGRFTISRDNAKNTVYLQMNSLKPEDTAVYYCAKAPDTQTSWSRQEGNYWGQGTQVTVSS | low polyreactivity
20 | QVQLVESGGGLVQAGGSLRLSCAASGLIFTSYAMGWYRQAPGKERELVAAISRGVRTYYADSVKGRFTISRDNAKNTVYLQMNSLKPEDTAVYYCAAAKPPPGKYDYWGQGTQVTVSS | high polyreactivity
21 | QVQLVESGGGLVQAGGSLRLSCAASGRTFYSYAMGWSRQAPGKERELVAAISRAGGTYYADSVKGRFTLSRDNAKNTVYLQMNSLKPEDTAVYYCAARQAVYGLRSDFYYWGQGTQVTVSS | high polyreactivity
22 | QFQLVESGGGLVQAGGSLRLSCAASGSTFVFYAMGWYRQAPGKQRELVATISTGGSTYADSVKGRFTISRDNAKNTVYLQMNSLKPEDTAVYYCAADSLFGHYDYSGQGTQVTVSS | low polyreactivity
23 | QVQLVESGGGLVQAGGSLRLSCAASGFTFRRYAMGWYRQAPGKERELVAAISTSGGRTYYADSVKGRFTISRDNAKNTVYLQMNSLKPEDTAVYYCAARIPKQRDVRGSGMNYWGQGTQVTVSS | high polyreactivity
24 | QVQLVESGGGLVQAGGSLRLSCAASGSIFDSYAMGWSRQAPGKERELVAAISWSGGSTYYADSVKGRFTISRDNAKNTVSLQMNSLKPEDTAVYYCNTDWADYYYYTDYDYWGQGTQVTVSS | high polyreactivity
25 | QVQLVESGGGLVQAGGSLRLSCAASGRSFESYAMGWYRQAPGKERELVAAITWSGGDTYYADSVKGRFTISRDNAKNTVYLQMNSLKPEDTAVYYCAKEQGLYSVSPYDYWGQGTQVTVSS | low polyreactivity
26 | QVQLVESGGGLVQAGGSLRLSCAASGLTFWVYTMGWYRQAPGKERELVARITSRGASTYYADSVKGRFTISRDNAKNTVYLQMNSLKPEDTAVYYCATDRYRIYPDYDYWGQGTQVTVSS | high polyreactivity
27 | QVQLVESGGGLVQAGGSLRLICAASGRTFTRYAMGWYRQAPGKERELVAAITSGDSTYYADSVKGRFTISRDNAKNTVYLQMNSLKPEDTAVYYCAARTSYGYWYRRRYYYWGQGTQVTVSS | high polyreactivity
28 | QVQLVESGGGLVQAGGSLRLSCAASGIIFSIYAMGWYRQAPGKERELVAAISGRGGRTYYADSVKGRFTISRDNAKNTVYLQMNSLKPVDTAVYYCIAEYLDLYDYWGQGTQVTVSS | low polyreactivity
29 | QVQLVESGGGLVQAGGSLRLSCAASGIIFKYNAMGRYRQAPGKEREFVAAITGSGGSTYYADSVKGRFTISRDNAKNTVYLQMYSLKPEDTAVYYCARPQWRDWYGYWGQGTQVTVSS | low polyreactivity
30 | QVQLVESGGGIVQAGGSLSLSCAASGNIFTAYAMGWYRQAPGKERELVATITSSGDSTYYADSVKGRFTISRDNAKNTVYLQMNRLKPEDTSVYYFATADPSASNEVYEYDYWGQGTQVTVSS | low polyreactivity
31 | QVQLVESGGGLVQAGGSLRLICAASGRTFKYYAMGWYRPAPGKERELVATISFRGGSTYYADSVKGRFTISRDNAKNTVYLQMNSLKPEDTSVYYCAATTPYYTPRRRNDYWGQGTQVTVSS | high polyreactivity
32 | QVQLVESGGGLVQAGGSLRLSCAASGSILVQSAMGWERQAPGKERELVAAISRGGSTNYADSVKGRFTISRDNPKNTVYLQMNSLKPEDTAVYYCAARRPWGEYYWGQGTQVNVSS | low polyreactivity
